Substitutions are numbered along the chain they refer to.

The target of assay [1] is T1, rHuman Erythropoietin R/Fc Chimera, CF (R&D Systems Cat#963-ER) (human, UniProt P19235 25-250).
T1 construct: Bought Fc chimera; also called EPO R/Fc; Epo R; Fc part of the bought chimera not given
T1 sequence: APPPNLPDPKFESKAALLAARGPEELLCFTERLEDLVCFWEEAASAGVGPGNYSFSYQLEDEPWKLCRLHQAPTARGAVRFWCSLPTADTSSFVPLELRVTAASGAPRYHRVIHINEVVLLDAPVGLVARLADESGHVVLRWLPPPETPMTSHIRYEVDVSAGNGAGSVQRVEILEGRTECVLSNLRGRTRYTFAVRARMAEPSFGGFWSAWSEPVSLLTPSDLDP
The experiment in a line: ECL (MSD Multi-Spot) binding assay, antigen spotted on plate; Fab 15 nM; blank spot 261.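 Further: blank spot per well as comparator with Hit at signal to blank ratio of 4 or more.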

In assay [2] the target is T2, rHuman Notch-1/Fc Chimera, CF (R&D Systems Cat#3647-TK) (human, UniProt P46531 19-526).
T2 construct: Bought Fc chimera; Fc part of the bought chimera not given
Described as above.

In assay [3] the target is T3, rHuman CD44/Fc Chimera, CF (R&D Systems Cat#3660-CD) (human, UniProt P16070 21-220).
T3 construct: Bought Fc chimera; Fc part of the bought chimera not given
The experiment in a line: ECL (MSD Multi-Spot) binding, antigen spotted on plate; Fab 0.5 nM.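 Further: blank spot per well as comparator with Hit at signal to blank ratio of 4 or more.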

Assay [4] has as its target T4, rHuman IGF-1 sR, CF (R&D Systems Cat#391-GR) (human, UniProt P08069 31-932).
T4 construct: Bought soluble receptor; also called insulin-like growth factor-1 soluble receptor; IGF-R1
The assay is described as above.

In assay [5] the target is T5, rHuman P-Cadherin/Fc Chimera, CF (R&D Systems Cat#861-PC) (human, UniProt P22223 108-654).
T5 construct: Bought Fc chimera; Fc part of the bought chimera not given
Described as above.

Assay [6] addresses T6, rHuman Erythropoietin R/Fc Chimera, CF (R&D Systems Cat#963-ER) (human, UniProt P19235 25-250).
T6 construct: Bought Fc chimera; also called EPO R/Fc; erythropoietin receptor; Fc part of the bought chimera not given
T6 sequence: T1 sequence
Described as above.

For assay [7], the target named is T7, rHuman ErbB2/Fc Chimera, CF (R&D Systems Cat#1129-ER) (human, UniProt P04626 23-652).
T7 construct: Bought Fc chimera; also called human epidermal growth factor 2 receptor; HER2/neu; Fc part of the bought chimera not given
The description is as above.

The target of assay [8] is T8, rHuman EGF R/Fc Chimera, CF (R&D Systems Cat#344-ER) (human, UniProt P00533 25-645).
T8 construct: Bought Fc chimera; also called epidermal growth factor receptor; Fc part of the bought chimera not given
The assay is described as above.

Assay [9] addresses T9, rHuman HGF R/c-MET/Fc Chimera, CF (R&D Systems Cat#358-MT/CF) (human, UniProt P08581 25-932).
T9 construct: Bought Fc chimera; also called HGF R/Fc; hepatocyte growth factor receptor; Fc part of the bought chimera not given
The assay is described as above.

The target of assay [10] is T10, rHuman IGF-1 sR (insulin-like growth factor-1 soluble receptor), CF (R&D Systems Cat#391-GR) (human, UniProt P08069 31-932).
T10 construct: Bought soluble receptor; also called IGF-R1
In words: ECL (MSD multi-spot), antigen on plate, Fab 500 nM.

Assay [11] deals with T11, rHuman P-Cadherin/Fc Chimera, CF (R&D Systems Cat#861-PC) (human, UniProt P22223 108-654).
T11 construct: Bought Fc chimera; also called CDH3; not shown: Fc of the bought chimera
The experiment in a line: ECL (MSD multi-spot), antigen on plate, Fab 500 nM.

The target of assay [12] is T12, rHuman Erythropoietin R/Fc Chimera, CF (R&D Systems Cat#963-ER) (human, UniProt P19235 25-250).
T12 construct: Bought Fc chimera; also called EPO R/Fc; Epo R; not shown: Fc of the bought chimera
T12 sequence: T1 sequence
The experiment in a line: ECL (MSD multi-spot), antigen on plate, Fab 500 nM.

Assay [13] concerns the target T13, Recombinant Human DLL4 (R&D Systems Cat#1506-D4/CF) (human, UniProt Q9NR61 27-524).
T13 construct: Bought recombinant protein; also called delta-like protein 4
The experiment in a line: ECL (MSD multi-spot), antigen on plate, Fab 500 nM.

Assay [14] deals with T14, rHuman ErbB2/Fc Chimera, CF (R&D Systems Cat#1129-ER) (human, UniProt P04626 23-652).
T14 construct: Bought Fc chimera; also called HER2/neu; not shown: Fc of the bought chimera
The experiment in a line: ECL (MSD multi-spot), antigen on plate, Fab 500 nM.

Assay [15] concerns the target T15, rHuman EGF R/Fc Chimera, CF (R&D Systems Cat#344-ER) (human, UniProt P00533 25-645).
T15 construct: Bought Fc chimera; also called ErbB-1; not shown: Fc of the bought chimera
The experiment in a line: ECL (MSD multi-spot), antigen on plate, Fab 500 nM.

Assay [16] has as its target T16, rHuman HGF R/c-MET/Fc Chimera, CF (R&D Systems Cat#358-MT/CF) (human, UniProt P08581 25-932).
T16 construct: Bought Fc chimera; also called HGF R/Fc; not shown: Fc of the bought chimera
In words: ECL (MSD multi-spot), antigen on plate, Fab 500 nM.

The target of assay [17] is T17, rHuman Notch-1/Fc Chimera, CF (R&D Systems Cat#3647-TK) (human, UniProt P46531 19-526).
T17 construct: Bought Fc chimera; not shown: Fc of the bought chimera
In words: ECL (MSD multi-spot), antigen on plate, Fab 500 nM.

Assay [18] has as its target T18, rHuman CD44/Fc Chimera, CF (R&D Systems Cat#3660-CD) (human, UniProt P16070 21-220).
T18 construct: Bought Fc chimera; not shown: Fc of the bought chimera
The experiment in a line: ECL (MSD multi-spot), antigen on plate, Fab 500 nM.

B1: Fab VH6-1_IGHD3-3*01_IGHJ4*01 & V4-3_IGLJ4*01 (Fab, V domains shown)
VH: QVQLQQSGPGLVKPSQTLSLTCAISGDSVSSNSAAWNWIRQSPSRGLEWLGRTYYRSKWYNDYAVSVKSRITINPDTSKNQFSLQLNSVTPEDTAVYYCAREYYDFWSGYYTDYFDYWGQGTLVTVSS
VL: QPVLTQPTSLSASPGASARLTCTLRSGINLGSYRIFWYQQKPESPPRYLLSYYSDSSKHQGSGVPSRFSGSKDASSNAGILVISGLQSEDEADYYCMIWHSSASFVFGGGTQLIIL
notes: Tested as a Fab made in E. coli; also called IGHV6-1*01
As to B1, the values for the ECL signal in assay [1] and in assay [2] were 397 and 508, respectively.

B2: Fab VH1-46_IGHD6-6*01_IGHJ1*01_S102A_S103P_S104F_H111Y & L6_IGKJ1*01 (Fab, V domains shown)
VH: QVQLVQSGAEVKKPGASVKVSCKASGYTFTSYYMHWVRQAPGQGLEWMGIINPSGGSTSYAQKFQGRVTMTRDTSTSTVYMELSSLRSEDTAVYYCAREEYAPFSAEYFQYWGQGTLVTVSS
VL: not shown
notes: Fab made in E. coli; The heavy chain also carries the CH1 with Flag and His tags of Plasmid A, and the light chain the kappa constant region of Plasmid C
For B2, the ECL signal was found to be 279 in [3]; 164 in assay [4]; 215 in [5]; 359 in assay [6]; 331 in assay [7]; 273 in assay [8]. Also, the ECL signal in assay [9] stood at 319.

B3: Fab VH1-46_IGHD6-6*01_IGHJ1*01_S102A_S103P_S104Y_H111Y & L6_IGKJ1*01 (Fab, V domains shown)
VH: B2 VH with F104Y
VL: not shown
notes: Fab made in E. coli; The heavy chain also carries CH1 with Flag and His tags from Plasmid A, and the light chain carries kappa CL from Plasmid C
With B3, the ECL signal came to 747 ECL signal in [10]; 1200 ECL signal in assay [11]; 1270 ECL signal in assay [12]; 106000 ECL signal in assay [13]; 596 ECL signal in assay [14]; 758 ECL signal in assay [15]. Further, the ECL signal is 841 ECL signal in assay [16], 689 ECL signal in assay [17] and 604 ECL signal in assay [18].

The values above are taken from US20120058906A1 (published 2012).
